Earlier results as cited in paper PMC9200754.

How the values were obtained:
p65 (Homo sapiens) = p65 (Homo sapiens) (UniProt Q04206); conditions: cited from earlier work
p50 (Homo sapiens) = p50 (Homo sapiens) (UniProt P19838); conditions: cited from earlier work

Chain of UniProt Q04206 (Q04206 whole entry): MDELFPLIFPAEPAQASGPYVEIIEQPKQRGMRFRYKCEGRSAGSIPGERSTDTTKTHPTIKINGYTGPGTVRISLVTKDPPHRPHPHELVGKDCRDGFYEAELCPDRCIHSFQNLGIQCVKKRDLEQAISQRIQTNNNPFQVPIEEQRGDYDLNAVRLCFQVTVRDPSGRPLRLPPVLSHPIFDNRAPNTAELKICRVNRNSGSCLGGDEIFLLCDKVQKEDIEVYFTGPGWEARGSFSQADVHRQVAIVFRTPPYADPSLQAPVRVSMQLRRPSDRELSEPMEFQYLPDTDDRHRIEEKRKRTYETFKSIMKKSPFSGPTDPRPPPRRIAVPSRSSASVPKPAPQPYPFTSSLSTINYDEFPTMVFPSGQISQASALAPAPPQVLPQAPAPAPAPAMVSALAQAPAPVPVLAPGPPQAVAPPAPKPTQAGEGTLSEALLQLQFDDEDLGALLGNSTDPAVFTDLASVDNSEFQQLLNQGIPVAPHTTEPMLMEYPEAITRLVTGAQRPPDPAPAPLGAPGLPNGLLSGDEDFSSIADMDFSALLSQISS

p50 (from UniProt P19838)
Kd (p65 (Homo sapiens)): 10 nM
Kd (p50 (Homo sapiens)): 30 nM
